Laboratory results from the supplement of paper PMC11246515.
± gives the standard deviation of the averaged measurements.

Assay: total protein half-life in vivo (active degradation + dilution); higher = more stable protein
[1] = wild type E. coli NCM3722, growth: C-lim chemostat, doubling time 3 h
[2] = wild type E. coli NCM3722, growth: C-lim chemostat, doubling time 6 h
[3] = wild type E. coli NCM3722, growth: C-lim chemostat, doubling time 12 h
[4] = wild type E. coli NCM3722, growth: P-lim chemostat, doubling time 12 h
[5] = E. coli NCM3722 delta-clpP delta-lon delta-hslV, growth: N-lim chemostat, doubling time 6 h
[6] = E. coli NCM3722 delta-clpP, growth: N-lim chemostat, doubling time 6 h
[7] = E. coli NCM3722 delta-hslV, growth: N-lim chemostat, doubling time 6 h
[8] = E. coli NCM3722 delta-lon, growth: N-lim chemostat, doubling time 6 h
[9] = E. coli NCM3722 delta-smpB, growth: N-lim chemostat, doubling time 6 h
[10] = wild type E. coli NCM3722, growth: N-lim chemostat, doubling time 6 h
[11] = wild type E. coli NCM3722, growth: N-lim chemostat, doubling time 12 h
[12] = wild type E. coli NCM3722, growth: P-lim chemostat, doubling time 6 h

Sequence	total protein half-life in vivo [1] [h]	total protein half-life in vivo [2] [h]	total protein half-life in vivo [3] [h]	total protein half-life in vivo [4] [h]	total protein half-life in vivo [5] [h]	total protein half-life in vivo [6] [h]	total protein half-life in vivo [7] [h]	total protein half-life in vivo [8] [h]	total protein half-life in vivo [9] [h]	total protein half-life in vivo [10] [h]	total protein half-life in vivo [11] [h]	total protein half-life in vivo [12] [h]
MKRVLTALAATLPFAANAADAISGAVERQPTNWQAIIMFLIFVVFTLGITYWASKRVRSRSDYYTAGGNITGFQNGLAIAGDYMSAASFLGISALVFTSGYDGLIYSLGFLVGWPIILFLIAERLRNLGRYTFADVASYRLKQGPIRILSACGSLVVVALYLIAQMVGAGKLIELLFGLNYHIAVVLVGVLMMMYVLFGGMLATTWVQIIKAVLLLFGASFMAFMVMKHVGFSFNNLFSEAMAVHPKGVDIMKPGGLVKDPISALSLGLGLMFGTAGLPHILMRFFTVSDAREARKSVFYATGFMGYFYILTFIIGFGAIMLVGANPEYKDAAGHLIGGNNMAAVHLANAVGGNLFLGFISAVAFATILAVVAGLTLAGASAVSHDLYANVFKKGATEREELRVSKITVLILGVIAIILGVLFENQNIAFMVGLAFAIAASCNFPIILLSMYWSKLTTRGAMMGGWLGLITAVVLMILGPTIWVQILGHEKAIFPYEYPALFSITVAFLGIWFFSATDNSAEGARERELFRAQFIRSQTGFGVEQGRAH	> 4	6.1 ± 0.31	12.9 ± 1.4	8.62	–	–	–	–	–	–	–	–
MIEFKNVSKHFGPTQVLHNIDLNIAQGEVVVIIGPSGSGKSTLLRCINKLEEITSGDLIVDGLKVNDPKVDERLIRQEAGMVFQQFYLFPHLTALENVMFGPLRVRGANKEEAEKLARELLAKVGLAERAHHYPSELSGGQQQRVAIARALAVKPKMMLFDEPTSALDPELRHEVLKVMQDLAEEGMTMVIVTHEIGFAEKVASRLIFIDKGRIAEDGNPQVLIKNPPSQRLQEFLQHVS	2.93 ± 0.62	4.88 ± 1.6	11.9 ± 0.78	12.5 ± 0.99	6.81 ± 0.9	5.7293 ± 0.0055	5.292 ± 0.039	5.12 ± 0.18	5.72 ± 0.6	6.79	11.5 ± 0.64	5.25
MSDMNNPADDNNGAMDDLWAEALSEQKSTSSKSAAETVFQQFGGGDVSGTLQDIDLIMDIPVKLTVELGRTRMTIKELLRLTQGSVVALDGLAGEPLDILINGYLIAQGEVVVVADKYGVRITDIITPSERMRRLSR	2.75 ± 0.5	4.23 ± 0.055	7.08 ± 1.4	–	5.45 ± 0.45	–	–	–	> 8	–	–	–
MILERVEIVGFRGINRLSLMLEQNNVLIGENAWGKSSLLDALTLLLSPESDLYHFERDDFWFPPGDINGREHHLHIILTFRESLPGRHRVRRYRPLEACWTPCTDGYHRIFYRLEGESAEDGSVMTLRSFLDKDGHPIDVEDINDQARHLVRLMPVLRLRDARFMRRIRNGTVPNVPNVEVTARQLDFLARELSSHPQNLSDGQIRQGLSAMVQLLEHYFSEQGAGQARYRLMRRRASNEQRSWRYLDIINRMIDRPGGRSYRVILLGLFATLLQAKGTLRLDKDARPLLLIEDPETRLHPIMLSVAWHLLNLLPLQRIATTNSGELLSLTPVEHVCRLVRESSRVAAWRLGPSGLSTEDSRRISFHIRFNRPSSLFARCWLLVEGETETWVINELARQCGHHFDAEGIKVIEFAQSGLKPLVKFARRMGIEWHVLVDGDEAGKKYAATVRSLLNNDREAEREHLTALPALDMEHFMYRQGFSDVFHRMAQIPENVPMNLRKIISKAIHRSSKPDLAIEVAMEAGRRGVDSVPTLLKKMFSRVLWLARGRAD	–	–	–	–	6.44 ± 0.23	2.21	–	–	–	–	–	–
MYQHHNWQGALLDYPVSKVVCVGSNYAKHIKEMGSAVPEEPVLFIKPETALCDLRQPLAIPSDFGSVHHEVELAVLIGATLRQATEEHVRKAIAGYGVALDLTLRDVQGKMKKAGQPWEKAKAFDNSCPLSGFIPAAEFTGDPQNTTLSLSVNGEQRQQGTTADMIHKIVPLIAYMSKFFTLKAGDVVLTGTPDGVGPLQSGDELTVTFDGHSLTTRVL	3.26 ± 0.39	6.22 ± 0.61	11.2 ± 0.037	12.6 ± 0.54	6.01 ± 0.48	4.64 ± 0.98	5.44 ± 0.96	5.67 ± 0.93	4.95 ± 0.3	5.18 ± 0.86	10.1 ± 0.033	5.856 ± 0.052
MPKFRVSLFSLALMLAVPFAPQAVAKTAAATTASQPEIASGSAMIVDLNTNKVIYSNHPDLVRPIASISKLMTAMVVLDARLPLDEKLKVDISQTPEMKGVYSRVRLNSEISRKDMLLLALMSSENRAAASLAHHYPGGYKAFIKAMNAKAKSLGMNNTRFVEPTGLSVHNVSTARDLTKLLIASKQYPLIGQLSTTREDMATFSNPTYTLPFRNTNHLVYRDNWNIQLTKTGFTNAAGHCLVMRTVINNKPVALVVMDAFGKYTHFADASRLRTWIETGKVMPVPAAALSYKKQKAAQMAAAGQTAQND [P0AFI5]	1.2 ± 0.078	1.65 ± 0.34	5.03 ± 1.2	5.78 ± 1.1	3.37 ± 0.94	4.68 ± 1.7	2.57 ± 0.64	2.78 ± 0.39	1.81 ± 0.06	2.93 ± 0.48	3.05 ± 0.18	3.78 ± 3.8
MNTPAQLSLPLYLPDDETFASFWPGDNSSLLAALQNVLRQEHSGYIYLWAREGAGRSHLLHAACAELSQRGDAVGYVPLDKRTWFVPEVLDGMEHLSLVCIDNIECIAGDELWEMAIFDLYNRILESGKTRLLITGDRPPRQLNLGLPDLASRLDWGQIYKLQPLSDEDKLQALQLRARLRGFELPEDVGRFLLKRLDREMRTLFMTLDQLDRASITAQRKLTIPFVKEILKL	2.74 ± 0.07	5.7 ± 1.3	9.48 ± 1.9	10.6 ± 0.12	5.11 ± 0.35	4.947 ± 0.022	5.42 ± 0.81	4.21 ± 0.21	4.29 ± 0.12	4.404 ± 0.034	7.28 ± 0.61	5.14 ± 0.064
MLPKAARIPHAMTLHGDTRIDNYYWLRDDTRSQPEVLDYLQQENSYGHRVMASQQALQDRILKEIIDRIPQREVSAPYIKNGYRYRHIYEPGCEYAIYQRQSAFSEEWDEWETLLDANKRAAHSEFYSMGGMAITPDNTIMALAEDFLSRRQYGIRFRNLETGNWYPELLDNVEPSFVWANDSWIFYYVRKHPVTLLPYQVWRHAIGTPASQDKLIYEEKDDTYYVSLHKTTSKHYVVIHLASATTSEVRLLDAEMADAEPFVFLPRRKDHEYSLDHYQHRFYLRSNRHGKNFGLYRTRMRDEQQWEELIPPRENIMLEGFTLFTDWLVVEERQRGLTSLRQINRKTREVIGIAFDDPAYVTWIAYNPEPETARLRYGYSSMTTPDTLFELDMDTGERRVLKQTEVPGFYAANYRSEHLWIVARDGVEVPVSLVYHRKHFRKGHNPLLVYGYGSYGASIDADFSFSRLSLLDRGFVYAIVHVRGGGELGQQWYEDGKFLKKKNTFNDYLDACDALLKLGYGSPSLCYAMGGSAGGMLMGVAINQRPELFHGVIAQVPFVDVVTTMLDESIPLTTGEFEEWGNPQDPQYYEYMKSYSPYDNVTAQAYPHLLVTTGLHDSQVQYWEPAKWVAKLRELKTDDHLLLLCTDMDSGHGGKSGRFKSYEGVAMEYAFLVALAQGTLPATPAD	3.24 ± 0.09	5.11 ± 0.12	10.8 ± 3.6	10.3 ± 0.86	–	3.82 ± 0.14	4.03 ± 0.38	4.8 ± 0.56	3.5 ± 0.68	4.31 ± 0.24	8.85	5.9 ± 1.3
MGKHHWKIEKQPEWYVKAVRKTIAALPSGYAEAADWLDVTENALFNRLRADGDQIFPLGWAMVLQRAGGTHFIADAVAQSANGVFVSLPDVEDVDNADINQRLLEVIEQIGSYSKQIRSAIEDGVVEPHEKTAINDELYLSISKLQEHAALVYKIFCISESNDARECAAPGVVASIASGCGETNA	–	–	–	–	2.93 ± 0.6	–	–	–	–	–	–	–
MAIDENKQKALAAALGQIEKQFGKGSIMRLGEDRSMDVETISTGSLSLDIALGAGGLPMGRIVEIYGPESSGKTTLTLQVIAAAQREGKTCAFIDAEHALDPIYARKLGVDIDNLLCSQPDTGEQALEICDALARSGAVDVIVVDSVAALTPKAEIEGEIGDSHMGLAARMMSQAMRKLAGNLKQSNTLLIFINQIRMKIGVMFGNPETTTGGNALKFYASVRLDIRRIGAVKEGENVVGSETRVKVVKNKIAAPFKQAEFQILYGEGINFYGELVDLGVKEKLIEKAGAWYSYKGEKIGQGKANATAWLKDNPETAKEIEKKVRELLLSNPNSTPDFSVDDSEGVAETNEDF [P0A7G6]	2.86 ± 0.031	4.82 ± 0.084	11.7 ± 4.1	9.63 ± 0.48	6.6 ± 1	5.85 ± 0.55	3.37 ± 0.057	3.272 ± 0.025	3.32 ± 0.036	3.4281 ± 0.0021	4.94 ± 0.44	4.77 ± 0.2
MNGKLQSSDVKNETPYNIPLLINENVISSGISLISLWHTYADEHYRVIWPRDKKKPLIANSWVAVYTVQGCGKILLKNGEQITLHGNCIIFLKPMDIHSYHCEGLVWEQYWMEFTPTSMMDIPVGQQSVIYNGEIYNQELTEVAELITSPEAIKNNLAVAFLTKIIYQWICLMYADGKKDPQRRQIEKLIATLHASLQQRWSVADMAATIPCSEAWLRRLFLRYTGKTPKEYYLDARLDLALSLLKQQGNSVGEVADTLNFFDSFHFSKAFKHKFGYAPSAVLKNTDQHPTDASPHN	–	–	–	–	5.49 ± 0.17	–	–	–	1.33 ± 0.21	–	–	–
MKSMNIAASSELVSRLSSHRRVVALGDTDFTDVAAVVITAADSRSGILALLKRTGFHLPVFLYSEHAVELPAGVTAVINGNEQQWLELESAACQYEENLLPPFYDTLTQYVEMGNSTFACPGHQHGAFFKKHPAGRHFYDFFGENVFRADMCNADVKLGDLLIHEGSAKDAQKFAAKVFHADKTYFVLNGTSAANKVVTNALLTRGDLVLFDRNNHKSNHHGALIQAGATPVYLEASRNPFGFIGGIDAHCFNEEYLRQQIRDVAPEKADLPRPYRLAIIQLGTYDGTVYNARQVIDTVGHLCDYILFDSAWVGYEQFIPMMADSSPLLLELNENDPGIFVTQSVHKQQAGFSQTSQIHKKDNHIRGQARFCPHKRLNNAFMLHASTSPFYPLFAALDVNAKIHEGESGRRLWAECVEIGIEARKAILARCKLFRPFIPPVVDGKLWQDYPTSVLASDRRFFSFEPGAKWHGFEGYAADQYFVDPCKLLLTTPGIDAETGEYSDFGVPATILAHYLRENGIVPEKCDLNSILFLLTPAESHEKLAQLVAMLAQFEQHIEDDSPLVEVLPSVYNKYPVRYRDYTLRQLCQEMHDLYVSFDVKDLQKAMFRQQSFPSVVMNPQDAHSAYIRGDVELVRIRDAEGRIAAEGALPYPPGVLCVVPGEVWGGAVQRYFLALEEGVNLLPGFSPELQGVYSETDADGVKRLYGYVLK	–	5.18 ± 0.13	8.46 ± 1.1	12.3 ± 1.8	4.97 ± 0.45	4.68 ± 0.86	4.28 ± 0.14	4.69 ± 0.36	4.34 ± 0.089	4.44 ± 0.13	8.46 ± 0.59	6.15 ± 0.14
MTQKIEQSQRQERVAAWNRRAECDLAAFQNSPKQTYQAEKARDRKLCANLEEAIRRSGLQDGMTVSFHHAFRGGDLTVNMVMDVIAKMGFKNLTLASSSLSDCHAPLVEHIRQGVVTRIYTSGLRGPLAEEISRGLLAEPVQIHSHGGRVHLVQSGELNIDVAFLGVPSCDEFGNANGYTGKACCGSLGYAIVDADNAKQVVMLTEELLPYPHNPASIEQDQVDLIVKVDRVGDAAKIGAGATRMTTNPRELLIARSAADVIVNSGYFKEGFSMQTGTGGASLAVTRFLEDKMRSRDIRADFALGGITATMVDLHEKGLIRKLLDVQSFDSHAAQSLARNPNHIEISANQYANWGSKGASVDRLDVVVLSALEIDTQFNVNVLTGSDGVLRGASGGHCDTAIASALSIIVAPLVRGRIPTLVDNVLTCITPGSSVDILVTDHGIAVNPARPELAERLQEAGIKVVSIEWLRERARLLTGEPQPIEFTDRVVAVVRYRDGSVIDVVHQVKE	–	–	> 16	–	–	–	–	–	–	–	–	–
MNTNVFRLLLLGSLFSLSACVQQSEVRQMKHSVSTLNQEMTQLNQETVKITQQNRLNAKSSSGVYLLPGAKTPARLESQIGTLRMSLVNITPDADGTTLTLRIQGESNDPLPAFSGTVEYGQIQGTIDNFQEINVQNQLINAPASVLAPSDVDIPLQLKGISVDQLGFVRIHDIQPVMQ	–	5.54 ± 0.6	11.3	12.7 ± 1.5	6.62 ± 0.76	–	–	6.77 ± 0.76	6.22 ± 0.65	5.64 ± 1.1	13.9	6.02 ± 0.69
